{"source": "patent US20240052037A1", "about": "(BEIJING HANMI PHARMACEUTICAL, published 2024)", "binders": {"B1": {"name": "CD47 monoclonal antibody (heavy and light chain variable region sequences of the humanized sequences z11 of the antibody CD47-18-5 and the constant region … (antibody, V domains shown)", "VH": "QVQLVQSGAEVKKPGSSVKVSCKASGFNIEDIYMHWVRQAPGQGLEWMGRIDPANDNTKYGPKLQGRVTITADTSTNTAYMELSSLRSEDTAVYYCVRRIPTDIMDYWGQGTTVTVSS", "VL": "DIQMTQSPSSLSASVGDRVTITCKASQNVRTSIAWYQQKPGKAPKTLIYLASNRHTGVPSRFSGSGSGTEFTLTISNLQPEDFATYYCLQHWNYPFTFGQGTKLEIK", "notes": "also called anti-CD47 monoclonal antibody"}}, "biological_target": "T1, CD47 on cells (HCC827 tumor cells; red blood cells from healthy people) (human, UniProt Q08722 19-323)", "T1 construct": "whole, on cells; Endogenous CD47 on human cells", "T1 sequence (Q08722 19-323)": "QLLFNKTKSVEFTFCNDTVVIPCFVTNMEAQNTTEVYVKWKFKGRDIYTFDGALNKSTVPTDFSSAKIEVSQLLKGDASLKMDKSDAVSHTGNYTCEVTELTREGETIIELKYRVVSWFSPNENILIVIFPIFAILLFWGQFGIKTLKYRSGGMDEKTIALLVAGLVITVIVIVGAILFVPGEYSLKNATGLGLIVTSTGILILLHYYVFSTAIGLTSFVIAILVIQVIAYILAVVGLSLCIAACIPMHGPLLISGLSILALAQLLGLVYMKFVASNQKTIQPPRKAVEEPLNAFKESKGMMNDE", "test": "flow cytometry on mixed HCC827 cells and red blood cells", "description": "HCC827 tumor cells express PD-L1 and CD47, but red blood cells (RBCs) express only CD47. HCC827 cells and RBCs were mixed together, and flow cytometry (FCM) was used to detect whether the heterodimer was selective for the binding to the two cells in the mixed cells.\nThe specific implementation process of this method is as follows. […] Flow tubes were incubated on ice for 30 minutes. The cells were washed twice with PBS containing 2% FBS. Then the pellets were resuspended in 200 μL of cold PBS containing 2% FBS and FITC-labeled anti-human IgG antibody diluted 1:1000 (Beijing Zhongshan Golden Bridge, Catalog number ZF0306), incubated on ice for 30 minutes in the dark. The cells were washed twice with PBS containing 2% FBS, then resuspended in 500 μL of cold PBS. The cell suspension obtained was detected and analyzed on a flow cytometer (BD, FACS Calibur), and the respective fluorescence intensities of the two cells in the mixed cells were read."}
{"binder": "B1", "values": [{"measurement": "binding result", "result": "binds"}]}
